T1: Human TROP2 Protein, His Tag (Acro Biosystems) (human, UniProt P09758 27-274)
T1 construct: Bought antigen used at 50 nM in the Octet screen; also called TACSTD2; not shown: His tag
T1 sequence (looked up): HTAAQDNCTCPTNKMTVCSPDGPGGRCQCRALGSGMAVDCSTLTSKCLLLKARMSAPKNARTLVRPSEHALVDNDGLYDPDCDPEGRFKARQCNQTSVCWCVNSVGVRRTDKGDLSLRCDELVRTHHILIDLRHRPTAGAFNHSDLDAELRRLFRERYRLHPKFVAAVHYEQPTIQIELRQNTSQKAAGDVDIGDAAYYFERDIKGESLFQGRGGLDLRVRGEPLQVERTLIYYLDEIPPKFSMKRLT

B1: MYT11733 (antibody, V domains shown)
VH: QVQLQESGPGLVKPSETLSLTCTVSGGSISSYGVHWIRQPPGKGLEWIGVIWTSGVTDYNSALMGRVTISVDTSKNQFSLKLSSVTAADTAVYYCARHGDYDRYTMDYWGQGTLVTVSS
VL: DIVMTQSPDSLAVSLGERATINCRASKSVSTSGYSYMHWYQQKPGQPPKLLIYLASNLESGVPDRFSGSGSGTDFTLTISSLQAEDVAVYYCQHSRELPYTFGQGTKLEIK
notes: hu7E6SVG variant, His at HCV position 98 (H3 03); screened as IgG in Expi293 supernatant
B2: MYT11737 (antibody, V domains shown)
VH: QVQLQESGPGLVKPSETLSLTCTVSGGSISSYGVHWIRQPPGKGLEWIGVIWTSGVTDYNSALMGRVTISVDTSKNQFSLKLSSVTAADTAVYYCARDGDYHRYTMDYWGQGTLVTVSS
VL: DIVMTQSPDSLAVSLGERATINCRASKSVSTSGYSYMHWYQQKPGQPPKLLIYLASNLESGVPDRFSGSGSGTDFTLTISSLQAEDVAVYYCQHSRELPYTFGQGTKLEIK
notes: screened as IgG in Expi293 supernatant
B3: MYT11743 (antibody, V domains shown)
VH: QVQLQESGPGLVKPSETLSLTCTVSGGSISSYGVHWIRQPPGKGLEWIGVIWTSGVTDYNSALMGRVTISVDTSKNQFSLKLSSVTAADTAVYYCARDGDYDRYTMDHWGQGTLVTVSS
VL: DIVMTQSPDSLAVSLGERATINCRASKSVSTSGYSYMHWYQQKPGQPPKLLIYLASNLESGVPDRFSGSGSGTDFTLTISSLQAEDVAVYYCQHSRELPYTFGQGTKLEIK
notes: as for B2
B4: MYT11745 (antibody, V domains shown)
VH: QVQLQESGPGLVKPSETLSLTCTVSGGSISSYGVHWIRQPPGKGLEWIGVIWTSGVTDYNSALMGRVTISVDTSKNQFSLKLSSVTAADTAVYYCARDGDYDRYTMDYWGQGTLVTVSS
VL: DIVMTQSPDSLAVSLGERATINCRHSKSVSTSGYSYMHWYQQKPGQPPKLLIYLASNLESGVPDRFSGSGSGTDFTLTISSLQAEDVAVYYCQHSRELPYTFGQGTKLEIK
notes: hu7E6SVG variant, His at LCV position 25 (L1 02); screened as IgG in Expi293 supernatant
B5: MYT11744 (antibody, V domains shown)
VH: QVQLQESGPGLVKPSETLSLTCTVSGGSISSYGVHWIRQPPGKGLEWIGVIWTSGVTDYNSALMGRVTISVDTSKNQFSLKLSSVTAADTAVYYCARDGDYDRYTMDYWGQGTLVTVSS
VL: DIVMTQSPDSLAVSLGERATINCHASKSVSTSGYSYMHWYQQKPGQPPKLLIYLASNLESGVPDRFSGSGSGTDFTLTISSLQAEDVAVYYCQHSRELPYTFGQGTKLEIK
notes: hu7E6SVG variant, His at LCV position 24 (L1 01); screened as IgG in Expi293 supernatant
B6: MYT11740 (antibody, V domains shown)
VH: QVQLQESGPGLVKPSETLSLTCTVSGGSISSYGVHWIRQPPGKGLEWIGVIWTSGVTDYNSALMGRVTISVDTSKNQFSLKLSSVTAADTAVYYCARDGDYDRYHMDYWGQGTLVTVSS
VL: DIVMTQSPDSLAVSLGERATINCRASKSVSTSGYSYMHWYQQKPGQPPKLLIYLASNLESGVPDRFSGSGSGTDFTLTISSLQAEDVAVYYCQHSRELPYTFGQGTKLEIK
notes: as for B2
B7: MYT11746 (antibody, V domains shown)
VH: QVQLQESGPGLVKPSETLSLTCTVSGGSISSYGVHWIRQPPGKGLEWIGVIWTSGVTDYNSALMGRVTISVDTSKNQFSLKLSSVTAADTAVYYCARDGDYDRYTMDYWGQGTLVTVSS
VL: DIVMTQSPDSLAVSLGERATINCRAHKSVSTSGYSYMHWYQQKPGQPPKLLIYLASNLESGVPDRFSGSGSGTDFTLTISSLQAEDVAVYYCQHSRELPYTFGQGTKLEIK
notes: hu7E6SVG variant, His at LCV position 26 (L1 03); screened as IgG in Expi293 supernatant
B8: MYT11742 (antibody, V domains shown)
VH: QVQLQESGPGLVKPSETLSLTCTVSGGSISSYGVHWIRQPPGKGLEWIGVIWTSGVTDYNSALMGRVTISVDTSKNQFSLKLSSVTAADTAVYYCARDGDYDRYTMHYWGQGTLVTVSS
VL: DIVMTQSPDSLAVSLGERATINCRASKSVSTSGYSYMHWYQQKPGQPPKLLIYLASNLESGVPDRFSGSGSGTDFTLTISSLQAEDVAVYYCQHSRELPYTFGQGTKLEIK
notes: as for B2
B9: MYT11749 (antibody, V domains shown)
VH: QVQLQESGPGLVKPSETLSLTCTVSGGSISSYGVHWIRQPPGKGLEWIGVIWTSGVTDYNSALMGRVTISVDTSKNQFSLKLSSVTAADTAVYYCARDGDYDRYTMDYWGQGTLVTVSS
VL: DIVMTQSPDSLAVSLGERATINCRASKSHSTSGYSYMHWYQQKPGQPPKLLIYLASNLESGVPDRFSGSGSGTDFTLTISSLQAEDVAVYYCQHSRELPYTFGQGTKLEIK
notes: hu7E6SVG variant, His at LCV position 29 (L1 06); screened as IgG in Expi293 supernatant
B10: MYT11748 (antibody, V domains shown)
VH: QVQLQESGPGLVKPSETLSLTCTVSGGSISSYGVHWIRQPPGKGLEWIGVIWTSGVTDYNSALMGRVTISVDTSKNQFSLKLSSVTAADTAVYYCARDGDYDRYTMDYWGQGTLVTVSS
VL: DIVMTQSPDSLAVSLGERATINCRASKHVSTSGYSYMHWYQQKPGQPPKLLIYLASNLESGVPDRFSGSGSGTDFTLTISSLQAEDVAVYYCQHSRELPYTFGQGTKLEIK
notes: hu7E6SVG variant, His at LCV position 28 (L1 05); screened as IgG in Expi293 supernatant
B11: MYT11738 (antibody, V domains shown)
VH: QVQLQESGPGLVKPSETLSLTCTVSGGSISSYGVHWIRQPPGKGLEWIGVIWTSGVTDYNSALMGRVTISVDTSKNQFSLKLSSVTAADTAVYYCARDGDYDHYTMDYWGQGTLVTVSS
VL: DIVMTQSPDSLAVSLGERATINCRASKSVSTSGYSYMHWYQQKPGQPPKLLIYLASNLESGVPDRFSGSGSGTDFTLTISSLQAEDVAVYYCQHSRELPYTFGQGTKLEIK
B12: MYT11735 (antibody, V domains shown)
VH: QVQLQESGPGLVKPSETLSLTCTVSGGSISSYGVHWIRQPPGKGLEWIGVIWTSGVTDYNSALMGRVTISVDTSKNQFSLKLSSVTAADTAVYYCARDGHYDRYTMDYWGQGTLVTVSS
VL: DIVMTQSPDSLAVSLGERATINCRASKSVSTSGYSYMHWYQQKPGQPPKLLIYLASNLESGVPDRFSGSGSGTDFTLTISSLQAEDVAVYYCQHSRELPYTFGQGTKLEIK
notes: hu7E6SVG variant, His at HCV position 100 (H3 05); screened as IgG in Expi293 supernatant
B13: MYT11750 (antibody, V domains shown)
VH: QVQLQESGPGLVKPSETLSLTCTVSGGSISSYGVHWIRQPPGKGLEWIGVIWTSGVTDYNSALMGRVTISVDTSKNQFSLKLSSVTAADTAVYYCARDGDYDRYTMDYWGQGTLVTVSS
VL: DIVMTQSPDSLAVSLGERATINCRASKSVHTSGYSYMHWYQQKPGQPPKLLIYLASNLESGVPDRFSGSGSGTDFTLTISSLQAEDVAVYYCQHSRELPYTFGQGTKLEIK
notes: hu7E6SVG variant, His at LCV position 30 (L1 07); screened as IgG in Expi293 supernatant
B14: MYT11734 (antibody, V domains shown)
VH: QVQLQESGPGLVKPSETLSLTCTVSGGSISSYGVHWIRQPPGKGLEWIGVIWTSGVTDYNSALMGRVTISVDTSKNQFSLKLSSVTAADTAVYYCARDHDYDRYTMDYWGQGTLVTVSS
VL: DIVMTQSPDSLAVSLGERATINCRASKSVSTSGYSYMHWYQQKPGQPPKLLIYLASNLESGVPDRFSGSGSGTDFTLTISSLQAEDVAVYYCQHSRELPYTFGQGTKLEIK
notes: hu7E6SVG variant, His at HCV position 99 (H3 04); screened as IgG in Expi293 supernatant
B15: MYT11739 (antibody, V domains shown)
VH: QVQLQESGPGLVKPSETLSLTCTVSGGSISSYGVHWIRQPPGKGLEWIGVIWTSGVTDYNSALMGRVTISVDTSKNQFSLKLSSVTAADTAVYYCARDGDYDRHTMDYWGQGTLVTVSS
VL: DIVMTQSPDSLAVSLGERATINCRASKSVSTSGYSYMHWYQQKPGQPPKLLIYLASNLESGVPDRFSGSGSGTDFTLTISSLQAEDVAVYYCQHSRELPYTFGQGTKLEIK
notes: hu7E6SVG variant, His at HCV position 104 (H3 09); screened as IgG in Expi293 supernatant
B16: MYT11736 (antibody, V domains shown)
VH: QVQLQESGPGLVKPSETLSLTCTVSGGSISSYGVHWIRQPPGKGLEWIGVIWTSGVTDYNSALMGRVTISVDTSKNQFSLKLSSVTAADTAVYYCARDGDHDRYTMDYWGQGTLVTVSS
VL: DIVMTQSPDSLAVSLGERATINCRASKSVSTSGYSYMHWYQQKPGQPPKLLIYLASNLESGVPDRFSGSGSGTDFTLTISSLQAEDVAVYYCQHSRELPYTFGQGTKLEIK
notes: hu7E6SVG variant, His at HCV position 101 (H3 06); screened as IgG in Expi293 supernatant
B17: MYT11747 (antibody, V domains shown)
VH: QVQLQESGPGLVKPSETLSLTCTVSGGSISSYGVHWIRQPPGKGLEWIGVIWTSGVTDYNSALMGRVTISVDTSKNQFSLKLSSVTAADTAVYYCARDGDYDRYTMDYWGQGTLVTVSS
VL: DIVMTQSPDSLAVSLGERATINCRASHSVSTSGYSYMHWYQQKPGQPPKLLIYLASNLESGVPDRFSGSGSGTDFTLTISSLQAEDVAVYYCQHSRELPYTFGQGTKLEIK
notes: hu7E6SVG variant, His at LCV position 27 (L1 04); screened as IgG in Expi293 supernatant

target: T1, Human TROP2 Protein, His Tag (Acro …); test: BLI (Octet) [1/2]
Method: After allowing for four days of protein expression, cell culture supernatants were collected, quantified by SDS-PAGE analysis (DNS), and the pH dependence of the variant was evaluated using biolayer interferometry (BLI) on an Octet RED 96e instrument. Briefly, cell culture supernatants were diluted based on qualitative expression level of the variant determined by visual examination of SDS-PAGE gels, 5 μL of cell culture supernatant was diluted into 195 μL of 1×PBST, pH 7.4 for high expressors, 25 μL of cell culture supernatant was diluted into 175 μL of 1×PBST, pH 7.4 for medium expressors and 100 μL of cell culture supernatant was diluted into 100 μL of 1×PBST, pH 7.4 for low expressors for loading onto the sensor tips. The resulting diluted supernatants were then captured on an anti-human Fc sensor (Forte Bio). A baseline was established using 1×PBST (50 mM Potassium Phosphate Buffer+150 mM NaCl+0.05% Tween 20) pH 7.4, and the sensor was associated with 50 nM of TROP2 (Human TROP2 Protein, His Tag, Acro Biosystems) in 1×PBST pH 7.4 for 120 sec to generate an association curve. In the dissociation phase, the antibody-antigen complex on the sensor was exposed to 1×PBST pH 7.4 or pH 5.4, for 300 sec. Association and dissociation phase curves were examined for the starting ABPC antibody (with no substitutions) and each corresponding antibody variant at pH 5.4 and pH 7.4 to inform on two criteria: a) enhanced dissociation (i.e., higher koff values) at pH 5.4 due to histidine or alanine substitution compared to the starting ABPC, (with no substitutions), and b) reduced dissociation at pH 7.4 (i.e., lower koff values) compared to pH 5.4 in the antibody variant itself and with the starting ABPC (with no substitutions). […] It was also noted that while some mutations obliterated TROP2 binding, others were tolerated with little or n change in TROP2 binding kinetics.

Question: Does B1 bind?
Answer: no binding (tested: 50 nM)

Question: Does B2 bind?
Answer: binds

Question: Does B3 bind?
Answer: binds

Question: Does B4 bind?
Answer: binds

Question: Does B5 bind?
Answer: binds

Question: Does B6 bind?
Answer: no binding (tested: 50 nM)

Question: Does B7 bind?
Answer: binds

Question: Does B8 bind?
Answer: binds

Question: Does B9 bind?
Answer: no binding (tested: 50 nM)

Question: Does B10 bind?
Answer: binds

Question: Does B11 bind?
Answer: binds

Question: Does B12 bind?
Answer: binds

Question: Does B13 bind?
Answer: binds

Question: Does B14 bind?
Answer: no binding (tested: 50 nM)

Question: Does B15 bind?
Answer: no binding (tested: 50 nM)

Question: Does B16 bind?
Answer: no binding (tested: 50 nM)

Question: Does B17 bind?
Answer: binds

Source: US20260274985A1 (MYTHIC THERAPEUTICS, published 2026)
